Values of other authors, collected in paper PMC8979592.
pKd: −log10 of the molar value.

Molecular target: clathrin (UniProt Q00610)

pKd: 3.92
Substance: clathrin (from UniProt Q00610)
